Measured values as given in the supplement of paper PMC10724198.
± gives the standard deviation of the averaged measurements.

Columns and labels:
Saccharomyces cerevisiae [1] = assay: protein stability index of tFT-peptide fusion (C-terminal peptide) (PSI (0-1 scale)); higher = more stable (slower turnover); conditions: genetic background: wild type; temperature: 30 C
Saccharomyces cerevisiae [2] = assay: as above
Description: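 MPS profiling in S. cerevisiae of the tFT-X12 degron library: putative degron peptides plus stable controls, 12 aa, fused to the C-terminus of a sfGFP-mCherry timer. Cells are FACS-sorted into 8 mCherry/sfGFP bins and deep-sequenced. PSI runs from 0 (unstable) to 1 (stable). Backgrounds are wild type, das1Δ and doa10Δ at 30 °C, and wild type, das1Δ, cdc34-1 and cdc53-1 at 37 °C; 2-3 technical replicates each.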

[3] = genetic background: cdc34-1, temperature: 37 C
[4] = genetic background: cdc53-1, temperature: 37 C
[5] = genetic background: das1 deletion, temperature: 30 C
[6] = genetic background: das1 deletion, temperature: 37 C
[7] = genetic background: doa10 deletion, temperature: 30 C
[8] = genetic background: wild type, temperature: 30 C
[9] = genetic background: wild type, temperature: 37 C
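Further: PSI is a weighted mean of sequencing reads over stability bins, variants kept only with over 10 reads, mCherry proximal and sfGFP distal, peptide attached via GGGS linker.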

| Sequence | protein stability index (Saccharomyces cerevisiae [1]) | protein stability index (Saccharomyces cerevisiae [2]; [3]) | protein stability index (Saccharomyces cerevisiae [2]; [4]) | protein stability index (Saccharomyces cerevisiae [2]; [5]) | protein stability index (Saccharomyces cerevisiae [2]; [6]) | protein stability index (Saccharomyces cerevisiae [2]; [7]) | protein stability index (Saccharomyces cerevisiae [2]; [8]) | protein stability index (Saccharomyces cerevisiae [2]; [9]) |
| --- | --- | --- | --- | --- | --- | --- | --- | --- |
| TYNVMFSPWRKA | 0.206 ± 0.011 | 0.604 ± 0.07 | 0.7064 ± 0.005 | 0.667 ± 0.032 | 0.774 ± 0.0098 | 0.106 ± 0.007 | 0.148 ± 0.034 | 0.3808 ± 0.0022 |
| VNRRCWISRTLP | 0.258 ± 0.065 | 0.599 ± 0.023 | 0.716 ± 0.0041 | 0.645 ± 0.024 | 0.713 ± 0.012 | 0.137 ± 0.039 | 0.174 ± 0.04 | 0.289 ± 0.058 |
| LRQKIIYWWLWL | 0.313 ± 0.0047 | 0.478 ± 0.019 | 0.488 ± 0.021 | 0.472 ± 0.03 | 0.613 ± 0.008 | 0.255 ± 0.011 | 0.245 ± 0.011 | 0.3523 ± 0.001 |
| GGLVVYVWGRWS | 0.457 ± 0.024 | 0.526 ± 0.017 | 0.592 ± 0.025 | 0.383 ± 0.016 | 0.589 ± 0.009 | 0.356 ± 0.021 | 0.377 ± 0.015 | 0.573 ± 0.023 |
| SGWGCRMVVCAG | 0.245 ± 0.0031 | 0.154 ± 0.026 | 0.192 ± 0.028 | 0.186 ± 0.027 | 0.299 ± 0.011 | 0.152 ± 0.0088 | 0.197 ± 0.029 | 0.265 ± 0.0084 |
| EERKIFLKVVKV | 0.463 ± 0.0094 | 0.545 ± 0.036 | 0.496 ± 0.016 | 0.398 ± 0.025 | 0.5748 ± 0.0007 | 0.218 ± 0.021 | 0.305 ± 0.027 | 0.4656 ± 0.0028 |
| VFYWVGVLCGWG | 0.375 ± 0.007 | 0.298 ± 0.0073 | 0.391 ± 0.045 | 0.293 ± 0.026 | 0.4352 ± 0.0014 | 0.252 ± 0.012 | 0.29 ± 0.023 | 0.405 ± 0.018 |
| VFFLAFYFYRCF | 0.262 ± 0.02 | 0.405 ± 0.02 | 0.464 ± 0.018 | 0.416 ± 0.015 | 0.545 ± 0.0085 | 0.186 ± 0.0064 | 0.194 ± 0.029 | 0.365 ± 0.0085 |
| SLRICACMTVSW | 0.353 ± 0.005 | 0.3 ± 0.0079 | 0.373 ± 0.013 | 0.404 ± 0.086 | 0.335 ± 0.0069 | 0.366 ± 0.0045 | 0.353 ± 0.012 | 0.29 ± 0.013 |
| WGRFFWGCGVWV | 0.55 ± 0.074 | 0.631 ± 0.07 | 0.7128 ± 0.0035 | 0.6 ± 0.016 | 0.725 ± 0.0095 | 0.438 ± 0.016 | 0.463 ± 0.032 | 0.644 ± 0.031 |
| LVVFGLVLSLLL | 0.469 ± 0.025 | 0.449 ± 0.013 | 0.477 ± 0.006 | 0.376 ± 0.022 | 0.5066 ± 0.0043 | 0.356 ± 0.008 | 0.374 ± 0.022 | 0.495 ± 0.03 |
| KTSVLLCVSTSF | 0.441 ± 0.019 | 0.633 ± 0.0073 | 0.645 ± 0.021 | 0.427 ± 0.018 | 0.628 ± 0.015 | 0.442 ± 0.046 | 0.443 ± 0.016 | 0.628 ± 0.015 |
| PSDVLERVIRLL | 0.265 ± 0.026 | 0.616 ± 0.027 | 0.714 ± 0.023 | 0.647 ± 0.019 | 0.7309 ± 0.00081 | 0.136 ± 0.0023 | 0.168 ± 0.01 | 0.277 ± 0.051 |
| VWFVFVCAVCVL | 0.273 ± 0.0097 | 0.191 ± 0.029 | 0.298 ± 0.015 | 0.205 ± 0.012 | 0.3464 ± 0.003 | 0.138 ± 0.033 | 0.163 ± 0.023 | 0.271 ± 0.012 |
| TALSRLFECFLS | 0.461 ± 0.046 | 0.654 ± 0.052 | 0.744 ± 0.026 | 0.701 ± 0.028 | 0.768 ± 0.01 | 0.328 ± 0.0048 | 0.343 ± 0.03 | 0.499 ± 0.035 |
| ALTLSYAIKLKV | 0.372 ± 0.014 | 0.36 ± 0.02 | 0.395 ± 0.022 | 0.313 ± 0.032 | 0.4594 ± 0.00077 | 0.248 ± 0.0066 | 0.265 ± 0.025 | 0.401 ± 0.027 |
| KLSLRYLLVSLI | 0.188 ± 0.049 | 0.513 ± 0.013 | 0.602 ± 0.045 | 0.456 ± 0.018 | 0.606 ± 0.011 | 0.101 ± 0.0044 | 0.115 ± 0.025 | 0.153 ± 0.012 |

| Sequence | protein stability index (Saccharomyces cerevisiae [1]) | protein stability index (Saccharomyces cerevisiae [2]; [3]) | protein stability index (Saccharomyces cerevisiae [2]; [4]) | protein stability index (Saccharomyces cerevisiae [2]; [5]) | protein stability index (Saccharomyces cerevisiae [2]; [6]) | protein stability index (Saccharomyces cerevisiae [2]; [7]) | protein stability index (Saccharomyces cerevisiae [2]; [8]) | protein stability index (Saccharomyces cerevisiae [2]; [9]) |
| --- | --- | --- | --- | --- | --- | --- | --- | --- |
| LFLLFLCLSSLF | 0.435 ± 0.021 | 0.561 ± 0.0098 | 0.584 ± 0.012 | 0.487 ± 0.02 | 0.591 ± 0.032 | 0.448 ± 0.016 | 0.436 ± 0.035 | 0.5205 ± 0.0021 |
| LFVPVFSFGFVC | 0.226 ± 0.011 | 0.485 ± 0.0071 | 0.558 ± 0.0077 | 0.415 ± 0.027 | 0.589 ± 0.009 | 0.121 ± 0.02 | 0.145 ± 0.014 | 0.237 ± 0.015 |
| WGRGYRWRIWDV | 0.546 ± 0.093 | 0.708 ± 0.068 | 0.772 ± 0.018 | 0.657 ± 0.015 | 0.7901 ± 0.0042 | 0.396 ± 0.01 | 0.433 ± 0.0092 | 0.656 ± 0.034 |
| VTLVIYVLVQLT | 0.188 ± 0.035 | 0.148 ± 0.062 | 0.198 ± 0.11 | 0.156 ± 0.044 | 0.259 ± 0.0037 | 0.123 ± 0.02 | 0.15 ± 0.031 | 0.216 ± 0.037 |
| VKIEVICRVSLI | 0.429 ± 0.024 | 0.334 ± 0.031 | 0.459 ± 0.028 | 0.403 ± 0.02 | 0.495 ± 0.043 | 0.338 ± 0.0092 | 0.394 ± 0.05 | 0.404 ± 0.0055 |
| FGSFVVWGVWWG | 0.508 ± 0.018 | 0.458 ± 0.0071 | 0.4975 ± 0.0029 | 0.352 ± 0.036 | 0.563 ± 0.038 | 0.352 ± 0.015 | 0.356 ± 0.032 | 0.5069 ± 0.0015 |
| LLSLLLDPLLCL |  | 0.582 ± 0.024 | 0.624 ± 0.0029 | 0.522 ± 0.026 | 0.634 ± 0.015 | 0.521 ± 0.022 | 0.534 ± 0.024 | 0.6166 ± 0.0013 |
| SVYLYFQVVAYG |  | 0.0652 ± 0.021 | 0.0815 ± 0.058 | 0.0877 ± 0.049 | 0.198 ± 0.02 | 0.0536 ± 0.021 | 0.0724 ± 0.025 | 0.156 ± 0.0094 |
| IGWGGGTWVKMG |  | 0.544 ± 0.0058 | 0.7335 ± 0.0016 | 0.654 ± 0.0079 | 0.769 ± 0.015 | 0.0923 ± 0.022 | 0.106 ± 0.023 | 0.166 ± 0.038 |
| GRWGGYVGREWG |  | 0.497 ± 0.045 | 0.522 ± 0.025 | 0.442 ± 0.0056 | 0.482 ± 0.017 | 0.4402 ± 0.00068 | 0.458 ± 0.0072 | 0.461 ± 0.017 |
| VWVVRGFLGFGG |  | 0.532 ± 0.068 | 0.526 ± 0.029 | 0.4302 ± 0.0014 | 0.457 ± 0.012 | 0.437 ± 0.0075 | 0.438 ± 0.014 | 0.4411 ± 0.00055 |
| FGWLELVWFDLG |  | 0.646 ± 0.0098 | 0.684 ± 0.031 | 0.525 ± 0.03 | 0.703 ± 0.033 | 0.51 ± 0.034 | 0.531 ± 0.024 | 0.68 ± 0.039 |
| LEDVLFVMVINI |  | 0.4551 ± 0.0027 | 0.542 ± 0.028 | 0.308 ± 0.038 | 0.549 ± 0.035 | 0.346 ± 0.012 | 0.292 ± 0.025 | 0.49 ± 0.03 |
| GSMGGVGVLGGD |  | 0.544 ± 0.071 | 0.6535 ± 0.0059 | 0.467 ± 0.0086 | 0.5571 ± 0.0043 | 0.486 ± 0.018 | 0.476 ± 0.013 | 0.552 ± 0.018 |
| SDGGVVRGGCRG |  | 0.592 ± 0.083 | 0.787 ± 0.012 | 0.519 ± 0.061 | 0.714 ± 0.1 | 0.549 ± 0.081 | 0.512 ± 0.046 | 0.598 ± 0.016 |
| GIFYVRTIWSCG |  | 0.232 ± 0.025 | 0.348 ± 0.0043 | 0.192 ± 0.014 | 0.3813 ± 0.0011 | 0.1446 ± 0.00063 | 0.17 ± 0.017 | 0.332 ± 0.011 |
| APPRSLSPPLLS |  | 0.6637 ± 0.0036 | 0.701 ± 0.011 | 0.672 ± 0.022 | 0.71 ± 0.0073 | 0.679 ± 0.0075 | 0.6795 ± 0.0034 | 0.689 ± 0.016 |
